# Laboratory results taken from the RNAGym collection of RNA variant scans (doi:10.1021/acssynbio.7b00057).
# B1: Pistol ribozyme (parent)
# chain: GGGUCGUUGUUCCAUAAUCGCGUGGAUAUGGCACGCAAGUUUCUACCGGGCACCGUAAAUGUCCGACUGGAGCCGUUCGGGCGGCUAUAAACAGACCUCAGGCCCGAAGCGUGGCGGCACCUGCCGCCGGUGGUAAAAAAGAUCGGAAGAGCACACGUCU
# Variants of: B1
# Experiment: aptazyme ON/OFF ratio, guanine; higher = stronger switching; co-transcriptional cleavage with and without guanine
row,Variant,aptazyme ON/OFF ratio
1,U7G U8G U10A U11A C12G C13A,1.22
2,U7G U8G U10A U11A C12G C13U,1.13
3,U7G U8G G9U U11C C12A C13G,1.15
4,U7G U8G G9U U11C C12A C13U,1.23
5,U7G U8G G9U U11C C12A C13A,1.23
6,U7G U8G G9U U10C U11C C12U C13U,1.37
7,U7G U8G G9U U10C U11C C12U C13G,1.41
8,U7G U8G G9U U10C U11C C12U C13A,1.18
9,U7G U8G U10A,2.24
10,U7G U8G G9U U11A C13G,1.09
11,U7G U8G G9U U11A C13U,1.38
12,U7G U8G G9U U11A C13A,1.33
13,U7G U8G G9U U10C U11G,1.28
14,U7G U8G G9U U10C U11C,2.05
15,U7G U8G G9U U10C U11A,1.47
16,U7G U8G G9U C12U C13U,1.26
17,U7G U8G G9U C12U C13G,1.14
18,U7G U8G G9U C12U C13A,1.23
19,U7G U8G G9U U11G C12U,1.45
20,U7G U8G G9U U11G C12G,1.41
21,U7G U8G G9U U11G C12A,1.32

row,Variant,aptazyme ON/OFF ratio
1,U7G U8G G9U U11G C13A,1.2
2,U7G U8G G9U U11G C13G,1.19
3,U7G U8G G9U U11G C13U,1.42
4,U7G U8G G9U U10G C12G C13U,1.35
5,U7G U8G G9U U10G C12G C13G,1.15
6,U7G U8G G9U U10G C12G C13A,1.13
7,U7G U8G G9U,1.51
8,U7G U8G G9C U11G,2.2
9,U7G U8G G9C U11C,2.07
10,U7G U8G G9U U10A U11C,1.09
11,U7G U8G G9U U10A U11A,2.87
12,U7G U8G G9U U10A U11G,1.27
13,U7G U8G G9C U11G C13A,1.3
14,U7G U8G G9C U11G C13U,1.49
15,U7G U8G G9C U11G C13G,1.16
16,U7G U8G G9U U10G U11A C12G C13A,1.08
17,U7G U8G G9U U10G U11A C12G C13G,1.15
18,U7G U8G G9U U10G U11A C12G C13U,1.14
19,U7G U8G G9U U10C U11A C12G C13A,1.14
20,U7G U8G G9U U10C U11A C12G C13U,1.45
21,U7G U8G G9U U10C U11A C12G C13G,1.15

row,Variant,aptazyme ON/OFF ratio
1,U7G U8G G9U U10A U11A C12G,1.19
2,U7G U8G G9U U10A U11A C12U,1.31
3,U7G U8G G9U U10A U11A C12A,1.14
4,U7G U8G G9U U10C U11G C12A C13A,1.12
5,U7G U8G G9U U10C U11G C12A C13U,1.28
6,U7G U8G G9U U10C U11G C12A C13G,1.15
7,U7G U8G G9U U11A,2.18
8,U7G U8G G9U U11G,2.02
9,U7G U8G G9U U11C,3.17
10,U7G U8G G9U U11G C12G C13G,1.14
11,U7G U8G G9U U11G C12G C13A,1.05
12,U7G U8G G9U U11G C12G C13U,1.22
13,U7G U8G G9U U10A C12G C13A,1.07
14,U7G U8G G9U U10A C12G C13U,1.13
15,U7G U8G G9U U10A C12G C13G,1.09
16,U7G U8G U10A C12A,1.28
17,U7G U8G U10A C12G,1.29
18,U7G U8G U10A C12U,1.45
19,U7G U8G G9U U11G C12U C13G,1.2
20,U7G U8G G9U U11G C12U C13A,1.07
21,U7G U8G G9U U11G C12U C13U,1.27

row,Variant,aptazyme ON/OFF ratio
1,U7G U8G G9U U11G C12A C13A,1.1
2,U7G U8G G9U U11G C12A C13G,1.12
3,U7G U8G G9U U11G C12A C13U,1.16
4,U7G U8G G9U U10C U11A C12A C13G,1.24
5,U7G U8G G9U U10C U11A C12A C13U,1.33
6,U7G U8G G9U U10C U11A C12A C13A,1.3
7,U7G U8G G9C U11G C12U C13G,1.05
8,U7G U8G G9C U11G C12U C13U,1.26
9,U7G U8G G9C U11G C12U C13A,1.3
10,U7G U8G G9U U10G U11G C12G C13A,1.09
11,U7G U8G G9U U10G U11G C12G C13G,1.06
12,U7G U8G G9U U10G U11G C12G C13U,1.14
13,U7G U8G G9U U10C U11A C12A,1.28
14,U7G U8G G9U U10C U11A C12G,1.25
15,U7G U8G G9U U10C U11A C12U,1.28
16,U7G U8G G9U U10A U11C C12G C13U,1.14
17,U7G U8G G9U U10A U11C C12G C13A,1.08
18,U7G U8G G9U U10A U11C C12G C13G,1.09
19,U7G U8G U10A U11C C12A C13U,1.47
20,U7G U8G U10A U11C C12A C13A,1.34
21,U7G U8G U10A U11C C12A C13G,1.23
